Consider 15 molecules from patent US8383581B2, “Short-chain peptides as parathyroid hormone (PTH) receptor agonist” (Cadila Healthcare Limited, priority 2009, dated 2013).

A short description of series [1]: Stability of peptides in human liver microsomes. Conditions: human, microsomes; for % degradation of peptides in 24 h when incubated with liver microsomes: 2 μM, pH 7.8. The format is in vitro ADME. On the procedure:
(§1) b) Stability of Peptides in Human Plasma, Simulated Gastric Fluid, Intestinal Fluid and Liver Microsomes (Ex-Vivo): Different short-chain peptides (final concentration 2 μM) were incubated with either pooled human plasma (7.5 μL) or simulated gastric fluid (pH 1.5; composition HCl, NaCl and Pepsin) or simulated intestinal fluid (pH 7.5) or human liver microsomes, for 0, 2, 4, 6, 12 and 24 h (37° C.; 50 mM triethanolamine-HCl buffer; pH 7.8). Concentrations of human plasma/simulated gastric fluid/simulated intestinal fluid/human liver microsomes were selected in preliminary experiments to provide degradation of approximately 50% of PTH(1-34) within 1 h, therefore allowing time-dependent degradation to be viewed over 24 h. Reactions were terminated by the addition of TFA/H2O ([…], 10% (v/v)). The reaction products were then applied to a Vydac C18 analytical column (4.6×250-mm) and the major degradation fragment separated from intact short-chain peptides. The column was equilibrated with TFA/H20, at a flow rate of 1 mL/min. Using 0.1% (v/v) TFA in 70% acetonitrile/H2O, the concentration of acetonitrile in the eluting solvent was raised from 0% to 28% over 10 min and from 28% to 42% over 30 min. The absorbance was monitored at 206 nm using UV detector and peaks were collected manually prior to ESI-MS analysis. Area under the curve was measured for test peptides and their metabolites and percentage degradation were calculated at each time point over a period of 24 h. Stability study results of selected peptides, in human plasma, simulated gastric fluid, intestinal fluid and liver microsomes (in vitro) are listed in Table 4.
On the technique in general: Liver microsomes are vesicles of endoplasmic reticulum, rich in cytochrome P450 enzymes.

Series [2] is described as follows: Stability of peptides in human plasma. In kind it is in vitro ADME. Conditions: human, plasma; for metabolised at 24 h, 2 μM: pH 7.8. On the procedure: as §1
A short description of series [3]: Stability of peptides in simulated gastric fluid (pH 1.5; HCl, NaCl and Pepsin). In kind it is in vitro ADME. Conditions: pH 1.5; for % degradation of peptides in 24 h when incubated with simulated gastric fluid: 2 μM; for half-life: simulated gi fluid. The method, then:
as §1

A short description of series [4]: Stability of peptides in simulated intestinal fluid (pH 7.5). Conditions: pH 7.5; for half-life: simulated gi fluid; for % degradation of peptides in 24 h when incubated with simulated intestinal fluid: 2 μM. In kind it is in vitro ADME. The method, then:
as §1

Series [5] deals with T1, rat PTH-1R (rat PTHR endogenously expressed on UMR-106 rat osteosarcoma cells) (rat, UniProt P25961 27-591).
T1 sequence (looked up): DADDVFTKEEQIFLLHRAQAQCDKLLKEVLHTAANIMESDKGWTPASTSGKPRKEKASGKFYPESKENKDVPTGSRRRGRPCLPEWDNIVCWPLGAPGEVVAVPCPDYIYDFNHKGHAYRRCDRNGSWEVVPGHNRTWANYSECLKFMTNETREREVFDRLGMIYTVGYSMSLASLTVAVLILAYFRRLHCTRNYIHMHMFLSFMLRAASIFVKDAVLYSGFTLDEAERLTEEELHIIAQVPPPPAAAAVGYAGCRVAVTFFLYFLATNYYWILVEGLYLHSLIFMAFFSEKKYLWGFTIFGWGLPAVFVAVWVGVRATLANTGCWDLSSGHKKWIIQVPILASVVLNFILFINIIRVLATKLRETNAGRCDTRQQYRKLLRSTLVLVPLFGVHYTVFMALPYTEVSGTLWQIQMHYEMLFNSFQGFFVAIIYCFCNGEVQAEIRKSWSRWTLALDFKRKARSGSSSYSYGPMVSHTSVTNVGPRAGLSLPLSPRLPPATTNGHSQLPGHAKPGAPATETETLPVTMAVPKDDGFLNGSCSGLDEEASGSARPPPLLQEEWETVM
Briefly: cell-based or functional assay.

Where a SMILES comes first, the peptide text is derived from it. Where no end group is shown, it is not given here. [ ]: non-standard residue; d: D form. ξ: configuration not given here. ξBip(2'-Et-4'-OMe) = CCc1cc(OC)ccc1-c1ccc(CC(N)C(=O)O)cc1; Arg(NO2) = N=C(NCCC[C@H](N)C(=O)O)N[N+](=O)[O-]; αMePhe(2,6-F2) = C[C@](N)(Cc1c(F)cccc1F)C(=O)O; ξαMePhe(2,6-F2) = CC(N)(Cc1c(F)cccc1F)C(=O)O; αMePhe(2-F) = C[C@](N)(Cc1ccccc1F)C(=O)O; ξαMePhe(2-F) = CC(N)(Cc1ccccc1F)C(=O)O; hhPhe = N[C@@H](CCCc1ccccc1)C(=O)O; hArg = N=C(N)NCCCC[C@H](N)C(=O)O; hCit = NC(=O)NCCCC[C@H](N)C(=O)O; αMeF = C[C@](N)(Cc1ccccc1)C(=O)O; Cit = NC(=O)NCCC[C@H](N)C(=O)O; Nle = CCCC[C@H](N)C(=O)O; Orn = NCCC[C@H](N)C(=O)O; Ac5c = NC1(C(=O)O)CCCC1; Ac3c = NC1(C(=O)O)CC1; Aib = CC(C)(N)C(=O)O

Turning to `CCCC[C@H](NC(=O)C(C)(Cc1c(F)cccc1F)NC(=O)[C@H](CCC(N)=O)NC(=O)[C@@H](NC(=O)[C@H](CCC(=O)O)NC(=O)C1(NC(=O)[C@@H](NC(=O)C(C)(C)N)C(C)C)CC1)[C@@H](C)CC)C(=O)N[C@@H](Cc1c[nH]cn1)C(=O)N[C@@H](CCC(N)=O)C(=O)N[C@@H](CCCCNC(=N)N)C(=O)N[C@@H](C)C(=O)N[C@@H](CCCNC(=N)N[N+](=O)[O-])C(=O)NC(C)(Cc1ccccc1F)C(=O)N[C@@H](CCCc1ccccc1)C(N)=O` (stereo partly shown) [Seq. ID. 720] (H-[Aib]V[Ac3c]EIQ[ξαMePhe(2,6-F2)][Nle]HQ[hArg]A[Arg(NO2)][ξαMePhe(2-F)][hhPhe]-NH2), in series [1], the half-life is 2 h and the “% degradation of peptides in 24 h when incubated with liver microsomes” value was 86%. In series [2], the half-life is above 20 h and the metabolised at 24 h, 2 μM stood at 10%. For the same molecule, in series [3], the “% degradation of peptides in 24 h when incubated with simulated gastric fluid” value is 50% and the half-life is 4 h. Moreover, in series [4], the half-life is above 24 h and the “% degradation of peptides in 24 h when incubated with simulated intestinal fluid” value was 00%.

Consider `CCCC[C@H](NC(=O)[C@H](CC(C)C)NC(=O)[C@H](CCC(N)=O)NC(=O)[C@@H](NC(=O)[C@H](CCC(=O)O)NC(=O)C(C)(C)NC(=O)[C@@H](NC(=O)C(C)(C)N)C(C)C)[C@@H](C)CC)C(=O)N[C@@H](Cc1c[nH]cn1)C(=O)N[C@@H](CCC(N)=O)C(=O)N[C@@H](CCCN)C(=O)N[C@@H](C)C(=O)NC(C)(C)C(=O)NC(Cc1ccc(-c2ccc(OC)cc2CC)cc1)C(=O)N[C@@H](CCCc1ccccc1)C(N)=O` (stereo partly shown) [Seq. ID. 750] (H-[Aib]V[Aib]EIQL[Nle]HQ[Orn]A[Aib][ξBip(2'-Et-4'-OMe)][hhPhe]-NH2), for which, in series [1], the half-life was found to be 2 h and the “% degradation of peptides in 24 h when incubated with liver microsomes” value is 85%. Further, in series [2], the half-life is above 23 h and the metabolised at 24 h, 2 μM was found to be 9%. Besides, in series [3], the “% degradation of peptides in 24 h when incubated with simulated gastric fluid” value is 45% and the half-life is 4 h. Moreover, in series [4], the half-life is above 24 h and the “% degradation of peptides in 24 h when incubated with simulated intestinal fluid” value is given as 00%.

As to [Aib]V[Aib]EIQ[αMePhe(2,6-F2)][Nle]HQ[hCit]A[Arg(NO2)][αMePhe(2-F)] [Seq. ID. 461], in series [5], the “cAMP released with respect to control, 1 nM peptide, UMR-106 cells” value (from here on “cAMP released … 1 nM peptide, UMR-106 cells”) is 56 percent of control; the “cAMP released with respect to control, 10 nM peptide, UMR-106 cells” value (from here on “cAMP released … 10 nM peptide, UMR-106 cells”) is 101 percent of control; the “cAMP released with respect to control, 100 nM peptide, UMR-106 cells” value (shortened to “cAMP released … 100 nM peptide, UMR-106 cells”) was 126 percent of control.

As for [Aib]V[Aib]EIQ[αMePhe(2-F)][Nle]HQ[hCit][Aib][Cit][αMePhe(2,6-F2)] [Seq. ID. 418], in series [5], the “cAMP released … 1 nM peptide, UMR-106 cells” value was 29 percent of control; the “cAMP released … 10 nM peptide, UMR-106 cells” value is 52 percent of control; the “cAMP released … 100 nM peptide, UMR-106 cells” value was 69 percent of control.

Consider [Ac5c]V[Aib]EIQ[αMePhe(2,6-F2)][Nle]HQ[Orn]A[Aib][αMePhe(2,6-F2)] [Seq. ID. 311], for which, in series [5], the “cAMP released … 1 nM peptide, UMR-106 cells” value is 26 percent of control; the “cAMP released … 10 nM peptide, UMR-106 cells” value is 68 percent of control; the “cAMP released … 100 nM peptide, UMR-106 cells” value is 86 percent of control.

As for [Ac5c]V[Aib]EIQ[αMePhe(2-F)][Nle]HQ[Orn][Aib][Cit][αMePhe(2,6-F2)] [Seq. ID. 292], in series [5], the “cAMP released … 1 nM peptide, UMR-106 cells” value was 39 percent of control; the “cAMP released … 10 nM peptide, UMR-106 cells” value was 104 percent of control; the “cAMP released … 100 nM peptide, UMR-106 cells” value was 120 percent of control.

For [Ac5c]V[Aib]EIQ[αMePhe(2-F)][Nle]HQ[hCit][Aib][αMePhe(2,6-F2)][αMePhe(2-F)] [Seq. ID. 444], in series [5], the “cAMP released … 1 nM peptide, UMR-106 cells” value is 26 percent of control; the “cAMP released … 10 nM peptide, UMR-106 cells” value is 67 percent of control; the “cAMP released … 100 nM peptide, UMR-106 cells” value is 81 percent of control.

With [Ac5c]V[Aib]EIQ[αMePhe(2-F)][Nle]HQ[Cit][Aib][Aib][αMePhe(2,6-F2)] [Seq. ID. 372], in series [5], the “cAMP released … 1 nM peptide, UMR-106 cells” value is 32 percent of control; the “cAMP released … 10 nM peptide, UMR-106 cells” value was 71 percent of control; the “cAMP released … 100 nM peptide, UMR-106 cells” value was 99 percent of control.

For [Ac5c]V[Aib]EIQ[αMePhe(2,6-F2)][Nle]HQ[Cit]A[Cit][αMePhe(2-F)] [Seq. ID. 351], in series [5], the “cAMP released … 1 nM peptide, UMR-106 cells” value is 38 percent of control; the “cAMP released … 10 nM peptide, UMR-106 cells” value is 79 percent of control; the “cAMP released … 100 nM peptide, UMR-106 cells” value was 119 percent of control.

As to [Ac3c]V[Aib]EIQL[Nle]HQ[hArg][Aib]K[αMeF] [Seq. ID. 15], in series [5], the “cAMP released … 1 nM peptide, UMR-106 cells” value is 28 percent of control; the “cAMP released … 10 nM peptide, UMR-106 cells” value was 78 percent of control; the “cAMP released … 100 nM peptide, UMR-106 cells” value is 99 percent of control.

As to [Aib]V[Aib]EIQ[αMePhe(2-F)][Nle]HQ[Cit][Aib][Cit][αMePhe(2-F)] [Seq. ID. 346], in series [5], the “cAMP released … 1 nM peptide, UMR-106 cells” value is 21 percent of control; the “cAMP released … 10 nM peptide, UMR-106 cells” value is 51 percent of control; the “cAMP released … 100 nM peptide, UMR-106 cells” value is 69 percent of control.

For [Aib]V[Aib]EIQ[αMePhe(2-F)][Nle]HQ[Orn][Aib][Arg(NO2)][αMePhe(2-F)] [Seq. ID. 330], in series [5], the “cAMP released … 1 nM peptide, UMR-106 cells” value was 18 percent of control; the “cAMP released … 10 nM peptide, UMR-106 cells” value was 51 percent of control; the “cAMP released … 100 nM peptide, UMR-106 cells” value is 72 percent of control.

As to [Aib]V[Aib]EIQ[αMePhe(2,6-F2)][Nle]HQ[hCit]A[Aib][αMePhe(2-F)] [Seq. ID. 429], in series [5], the “cAMP released … 1 nM peptide, UMR-106 cells” value is 39 percent of control; the “cAMP released … 10 nM peptide, UMR-106 cells” value is 101 percent of control; the “cAMP released … 100 nM peptide, UMR-106 cells” value is 120 percent of control.

On to [Aib]V[Aib]EIQ[αMePhe(2,6-F2)][Nle]HQ[Cit]A[Arg(NO2)][αMePhe(2-F)] [Seq. ID. 397], for which, in series [5], the “cAMP released … 1 nM peptide, UMR-106 cells” value is 38 percent of control; the “cAMP released … 10 nM peptide, UMR-106 cells” value is 102 percent of control; the “cAMP released … 100 nM peptide, UMR-106 cells” value was 117 percent of control.

In the case of [Aib]V[Aib]EIQ[αMePhe(2,6-F2)][Nle]HQ[Orn]A[αMePhe(2,6-F2)][αMePhe(2,6-F2)] [Seq. ID. 325], in series [5], the “cAMP released … 1 nM peptide, UMR-106 cells” value was 38 percent of control; the “cAMP released … 10 nM peptide, UMR-106 cells” value is 98 percent of control; the “cAMP released … 100 nM peptide, UMR-106 cells” value is 116 percent of control.

The term half-life denotes the time needed for the level to fall by half in the phase considered. Low values mean fast loss, high ones slow loss.
